Laboratory results: US20220251151A1

Columns and labels:
Test in all cases: cell-based or functional assay
[1] = molecular target: human Kv1.1 potassium channel (α-subunit) (human) (UniProt Q09470)
[2] = molecular target: human Kv1.3 potassium channel (potassium voltage-gated channel subfamily A member 3, α-subunit) (human) (UniProt P22001)
[3] = molecular target: human Kv1.2 potassium channel (α-subunit) (human) (UniProt P16389)
[4] = molecular target: human Kv1.6 potassium channel (α-subunit) (human) (UniProt P17658)
human Kv1.6 potassium channel (α-subunit) (human), sequence (P17658 whole entry): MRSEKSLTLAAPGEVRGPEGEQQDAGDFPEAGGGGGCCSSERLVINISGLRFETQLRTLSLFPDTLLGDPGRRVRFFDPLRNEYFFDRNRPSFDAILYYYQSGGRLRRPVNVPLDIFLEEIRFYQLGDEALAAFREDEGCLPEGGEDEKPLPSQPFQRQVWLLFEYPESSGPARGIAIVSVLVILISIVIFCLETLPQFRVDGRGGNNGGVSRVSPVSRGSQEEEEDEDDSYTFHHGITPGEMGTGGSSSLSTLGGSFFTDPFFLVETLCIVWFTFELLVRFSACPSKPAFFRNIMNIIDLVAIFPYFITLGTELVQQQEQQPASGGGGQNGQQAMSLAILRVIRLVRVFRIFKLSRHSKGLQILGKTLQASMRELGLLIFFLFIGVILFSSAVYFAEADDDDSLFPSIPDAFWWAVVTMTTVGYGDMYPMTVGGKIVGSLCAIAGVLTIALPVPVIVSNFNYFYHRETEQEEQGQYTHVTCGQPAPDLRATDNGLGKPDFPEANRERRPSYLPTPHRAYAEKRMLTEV

human Kv1.3 potassium channel (potassium voltage-gated channel subfamily A member 3, α-subunit) (human), sequence (P22001 whole entry): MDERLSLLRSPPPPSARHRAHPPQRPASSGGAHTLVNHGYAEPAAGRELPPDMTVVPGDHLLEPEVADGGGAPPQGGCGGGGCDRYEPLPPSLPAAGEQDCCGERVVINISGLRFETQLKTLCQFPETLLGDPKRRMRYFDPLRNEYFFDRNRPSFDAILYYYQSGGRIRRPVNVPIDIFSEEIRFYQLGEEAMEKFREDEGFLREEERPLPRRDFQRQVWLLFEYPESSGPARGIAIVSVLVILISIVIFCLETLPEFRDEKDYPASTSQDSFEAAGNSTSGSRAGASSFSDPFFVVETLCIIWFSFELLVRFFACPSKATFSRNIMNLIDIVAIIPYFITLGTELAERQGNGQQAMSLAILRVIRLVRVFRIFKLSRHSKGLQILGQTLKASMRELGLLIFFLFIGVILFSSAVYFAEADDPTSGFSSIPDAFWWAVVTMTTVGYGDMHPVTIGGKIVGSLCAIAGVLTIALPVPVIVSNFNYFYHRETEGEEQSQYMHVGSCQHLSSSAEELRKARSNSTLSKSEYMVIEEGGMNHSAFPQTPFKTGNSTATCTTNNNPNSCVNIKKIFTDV
human Kv1.2 potassium channel (α-subunit) (human), sequence (P16389 whole entry): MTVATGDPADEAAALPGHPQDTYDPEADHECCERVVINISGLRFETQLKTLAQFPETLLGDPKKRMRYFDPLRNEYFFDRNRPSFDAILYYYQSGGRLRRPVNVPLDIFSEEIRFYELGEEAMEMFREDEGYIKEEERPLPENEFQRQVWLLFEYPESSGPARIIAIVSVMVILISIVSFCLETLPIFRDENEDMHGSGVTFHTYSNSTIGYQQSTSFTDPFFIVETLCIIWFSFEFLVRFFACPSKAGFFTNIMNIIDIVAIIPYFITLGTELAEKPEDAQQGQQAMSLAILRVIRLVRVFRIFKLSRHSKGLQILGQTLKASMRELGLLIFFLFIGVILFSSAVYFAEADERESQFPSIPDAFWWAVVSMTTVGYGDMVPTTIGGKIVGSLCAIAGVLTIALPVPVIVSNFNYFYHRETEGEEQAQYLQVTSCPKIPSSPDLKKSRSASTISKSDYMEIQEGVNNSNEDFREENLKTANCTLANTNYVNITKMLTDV
human Kv1.1 potassium channel (α-subunit) (human), sequence (Q09470 whole entry): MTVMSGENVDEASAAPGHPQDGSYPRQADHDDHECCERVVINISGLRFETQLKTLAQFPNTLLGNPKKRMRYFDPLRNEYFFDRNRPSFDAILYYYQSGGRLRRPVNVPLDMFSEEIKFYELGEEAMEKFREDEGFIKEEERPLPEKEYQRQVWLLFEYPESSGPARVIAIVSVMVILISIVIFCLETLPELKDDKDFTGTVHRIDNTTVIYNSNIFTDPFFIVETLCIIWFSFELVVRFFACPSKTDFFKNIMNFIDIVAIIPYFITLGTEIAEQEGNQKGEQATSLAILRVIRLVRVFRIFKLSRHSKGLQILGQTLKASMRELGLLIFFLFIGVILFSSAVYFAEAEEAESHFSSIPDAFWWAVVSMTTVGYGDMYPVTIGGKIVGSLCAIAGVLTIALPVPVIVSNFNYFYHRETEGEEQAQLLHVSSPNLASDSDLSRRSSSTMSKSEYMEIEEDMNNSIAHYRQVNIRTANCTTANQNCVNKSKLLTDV

Substance | Potency IC50 (patch clamp) [1] | Selectivity Kv1.1/Kv1.3 [1] | Potency IC50 (patch clamp) [2] | Potency IC50 (patch clamp) [3] | Selectivity Kv1.2/Kv1.3 [3] | Potency IC50 (patch clamp) [4] | Selectivity Kv1.6/Kv1.3 [4]
Moka1 (peptide) | > 3000 nM | > 300 | 9 nM | 275 nM | 31 | > 3000 nM | > 300
ShK (peptide) |  |  | 0.017 nM | 11 nM |  | 0.19 nM | 
Vm24 (peptide) | 0.097 nM | 0.65 | 0.15 nM | 4.7 nM | 31 | 21 nM | 139
